Test results: article PMC7795666
Where two headings read alike, the source gives them in different places.

Legend:
[1] = biological target: pyrene-labeled F-actin (chicken skeletal actin) (chicken) (UniProt P68139); test: stopped-flow transient kinetics (pyrene-actin fluorescence); no nucleotide; k'+A from linear fits of kobs; k'-A from mixing 1 µM pyrene-actomyosin complex with excess unlabeled F-actin; 1/K'A calculated as k'-A/k'+A; 20 °C, 20 mM MOPS, 100 mM KCl, 5 mM MgCl2, 1 mM DTT, pH 7.0
[2] = biological target: F-actin (chicken skeletal actin) (chicken) (UniProt P68139)
[3] = biological target: pyrene-labeled F-actin (chicken skeletal actin) (chicken) (UniProt P68139); test: double-mixing stopped-flow (pyrene-actin fluorescence quench); weak-to-strong transition, single turnover: 2 µM myosin mixed with sub-equimolar ATP (1.8 µM), aged 3 s, then mixed with 20 µM pyrene-actin; double exponential fits; 20 °C
[4] = biological target: pyrene-labeled F-actin (chicken skeletal actin) (chicken) (UniProt P68139); test: stopped-flow (pyrene-actin fluorescence amplitude); multiple turnover: 2 µM myosin and 15 µM pyrene-actin mixed with 20 µM ATP; signal normalised to 100% of myosin bound to actin without nucleotide; fraction strongly bound from the change in total amplitude
[5] = biological target: pyrene-labeled F-actin (chicken skeletal actin) (chicken) (UniProt P68139); test: as above; remark: listed apart in the source
[6] = biological target: pyrene-labeled F-actin (chicken skeletal actin) (chicken) (UniProt P68139); test: stopped-flow transient kinetics (pyrene-actin fluorescence); with ADP (ADP-myosin); k'+DA from linear dependence of kobs on pyrene-actin concentration; k'-DA from 1 µM pyrA.M pre-incubated with excess ADP mixed with excess unlabeled F-actin; 1/K'DA calculated as k'-DA/k'+DA; 20 °C, 20 mM MOPS, 100 mM KCl, 5 mM MgCl2, 1 mM DTT, pH 7.0
[7] = biological target: pyrene-labeled F-actin (chicken skeletal actin) (chicken) (UniProt P68139); test: double-mixing stopped-flow (pyrene-actin fluorescence quench); weak-to-strong transition, single turnover: 2 µM myosin mixed with sub-equimolar ATP (1.8 µM), aged 3 s, then mixed with 20 µM pyrene-actin; double exponential fits; 20 °C; remark: listed apart in the source
[8] = biological target: F-actin (chicken skeletal actin) (chicken) (UniProt P68139); test: double-mixing stopped-flow, actin-activated Pi release (MDCC-PBP fluorescence); M.D.Pi state; multiple turnover: 2 µM myosin mixed with 200 µM ATP, aged 0.1 s, then mixed with increasing F-actin in excess ADP, 5 µM MDCC-PBP; hyperbolic fit kobs = k'+4[actin]/(1/K'DPA+[actin]); 20 °C, 20 mM MOPS, 100 mM KCl, 5 mM MgCl2, 1 mM DTT, pH 7.0

| Substance | Kd [1] [nM] | koff [1] [s⁻¹] | kon [1] [M⁻¹ s⁻¹] | Kapp of the actin-activated steady-state ATPase (F-actin concentration at kcat/2), NADH-coupled assay [2] [µM] | kcat/Kapp (catalytic efficiency) of the actin-activated steady-state ATPase [2] [M⁻¹ s⁻¹] | k'weak-strong (observed rate of the weak-to-strong actin-binding transition) [3] [s⁻¹] | percent strongly actin-bound with ATP (experimental duty ratio) [4] [%] | percent strongly actin-bound with ATP (experimental duty ratio) [5] [%] | Kd [6] [nM] | koff [6] [s⁻¹] | kon [6] [M⁻¹ s⁻¹] | k'weak-strong (observed rate of the weak-to-strong actin-binding transition) [7] [s⁻¹] | Kd [8] [nM] | k'+4K'DPA (second order rate constant of M.D.Pi binding to actin) [8] [M⁻¹ s⁻¹] |
| --- | --- | --- | --- | --- | --- | --- | --- | --- | --- | --- | --- | --- | --- | --- |
| M765^AA-2R, D. discoideum myosin-2 motor domain (amino acids 1-765) with T647A, T648A fused to two alpha-actinin repeats (from UniProt P08799 1-765) (domain or fragment) | 10 | 0.004 | 610000 | > 100 | < 30000 |  |  |  |  |  |  |  |  |  |
| M765^GGG-2R, D. discoideum myosin-2 motor domain (amino acids 1-765) with the two W-loop threonines replaced by three glycines, fused to two alpha-actinin repeats (from UniProt P08799 1-765) (domain or fragment) | 11 | 0.005 | 610000 | 54 | 140000 | 2.6 | 35 | 45 | 24 | 0.005 | 180000 | 2.3 | 18000 | 790000 |
| M765^wt-2R, D. discoideum myosin-2 motor domain (amino acids 1-765) fused to an artificial lever of two alpha-actinin repeats (from UniProt P08799 1-765) (domain or fragment) | 5.7 | 0.003 | 640000 | > 100 | < 30000 | 1 |  |  | 63 | 0.006 | 120000 |  | 94000 | 40000 |
